Assay results published in patent publication US8278415B2 (Centocor, Inc., dated 2012).

These binders were tested against sEGFR-MMB (human) (assay: phage ELISA on coated sEGFR-MMB, chemiluminescence (background typically <200 units)).
Sequence of sEGFR-MMB (human) (chain, as listed by the source limits assumed): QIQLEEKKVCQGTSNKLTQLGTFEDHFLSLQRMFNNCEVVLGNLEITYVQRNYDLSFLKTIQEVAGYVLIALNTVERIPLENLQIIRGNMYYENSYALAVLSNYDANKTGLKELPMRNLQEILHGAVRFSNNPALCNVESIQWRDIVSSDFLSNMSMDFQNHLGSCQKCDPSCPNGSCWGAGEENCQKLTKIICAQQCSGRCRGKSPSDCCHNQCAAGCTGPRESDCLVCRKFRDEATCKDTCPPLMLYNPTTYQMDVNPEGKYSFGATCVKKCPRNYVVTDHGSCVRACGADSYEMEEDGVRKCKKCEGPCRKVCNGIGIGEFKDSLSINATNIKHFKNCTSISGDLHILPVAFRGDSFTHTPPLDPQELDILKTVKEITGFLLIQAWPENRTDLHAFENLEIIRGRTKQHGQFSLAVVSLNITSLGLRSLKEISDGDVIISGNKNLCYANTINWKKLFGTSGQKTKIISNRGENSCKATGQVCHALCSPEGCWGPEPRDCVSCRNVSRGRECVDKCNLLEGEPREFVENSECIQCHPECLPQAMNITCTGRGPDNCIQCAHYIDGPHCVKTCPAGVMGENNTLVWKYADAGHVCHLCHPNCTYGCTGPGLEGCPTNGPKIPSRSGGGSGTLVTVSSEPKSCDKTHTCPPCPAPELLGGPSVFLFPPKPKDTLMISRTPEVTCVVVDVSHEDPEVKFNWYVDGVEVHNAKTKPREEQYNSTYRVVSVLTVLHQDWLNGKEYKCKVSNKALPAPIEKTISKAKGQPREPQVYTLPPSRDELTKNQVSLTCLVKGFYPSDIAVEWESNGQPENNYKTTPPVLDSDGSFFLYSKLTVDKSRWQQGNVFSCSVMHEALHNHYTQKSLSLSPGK

Question: How did the ELISA turn out when KTCVSTTFDLWFVCFA [P176] was run?
Answer: 37400 units

Question: How did the ELISA turn out when DSCCSFLTDGTVVCSL [S20 library phage peptide of SEQ ID NO: 45] was run?
Answer: 9540 units

Question: For LLCATTSFRDWFVCFT [S20 library phage peptide of SEQ ID NO: 49], which ELISA is on record?
Answer: 4510 units

Question: PTCDSATRRVLTICAD [S20 library phage peptide of SEQ ID NO: 43] was tested. Which ELISA did it give?
Answer: 5420 units

Question: With YICTPSDIDSWYICYL [S20 library phage peptide of SEQ ID NO: 46] as the binder, how does the ELISA read?
Answer: 6620 units

Question: How did the ELISA turn out when SVCVGTAFPGWMVCGP [S20 library phage peptide of SEQ ID NO: 47] was run?
Answer: 4770 units

Question: With WMCFLEGYGASLMCQC [S20 library phage peptide of SEQ ID NO: 44] as the binder, how does the ELISA read?
Answer: 4800 units

Target: sEGFR-MMB (human)
Test: as above
Remark: another data set of the same source

Question: PIDDESLPVLYCVTS [S15 library phage peptide of SEQ ID NO: 17] was tested. Which ELISA did it give?
Answer: 1780 units

Question: PIFSSLPVLYCTSQL [S15 library phage peptide of SEQ ID NO: 18] was tested. Which ELISA did it give?
Answer: 1420 units

Question: With LPDLICAVDSGTSGA [S15 library phage peptide of SEQ ID NO: 21] as the binder, how does the ELISA read?
Answer: 1160 units

Question: HVSLQSLPELICVVS [S15 library phage peptide of SEQ ID NO: 14] was tested. Which ELISA did it give?
Answer: 1360 units

Question: How did the ELISA turn out when NWFSLPTLLCFPLNP [S15 library phage peptide of SEQ ID NO: 15] was run?
Answer: 3670 units

Question: Which ELISA does the source give for LPDDSLPELICKVRG [P175] here?
Answer: 6790 units

Question: How did the ELISA turn out when STITSLPTLQCWPIL [S15 library phage peptide of SEQ ID NO: 16] was run?
Answer: 13300 units

Question: VSGILPILVCHPAAT [S15 library phage peptide of SEQ ID NO: 12] was tested. Which ELISA did it give?
Answer: 1110 units

Question: How did the ELISA turn out when YRLFVDESIFFCTRL [S15 library phage peptide of SEQ ID NO: 10] was run?
Answer: 3080 units

Question: TVFTLPELVCVVAGT [S15 library phage peptide of SEQ ID NO: 20] was tested. Which ELISA did it give?
Answer: 1520 units

Question: How did the ELISA turn out when ELGLPTLLCWPTDTL [S15 library phage peptide of SEQ ID NO: 11] was run?
Answer: 9380 units

Question: GADTLPDLLCWESSL [S15 library phage peptide of SEQ ID NO: 19] was tested. Which ELISA did it give?
Answer: 5720 units

Target: sEGFR-MMB (human)
Test: as above
Remark: another data set of the same source

Question: With DSCIQFANLLYCAI [S18 library phage peptide of SEQ ID NO: 27] as the binder, how does the ELISA read?
Answer: 53200 units

Question: With SDCVLFGSKLFCSA [S18 library phage peptide of SEQ ID NO: 32] as the binder, how does the ELISA read?
Answer: 35300 units

Question: RGCVVFGDNIYCIV [S18 library phage peptide of SEQ ID NO: 35] was tested. Which ELISA did it give?
Answer: 22000 units

Question: With YDCVSFGAVAYCPQ [S18 library phage peptide of SEQ ID NO: 34] as the binder, how does the ELISA read?
Answer: 3200 units

Question: Which ELISA does the source give for RDCIIFDKTVYCVI [S18 library phage peptide of SEQ ID NO: 25] here?
Answer: 17100 units

Question: With AYCSFVAGDLVCQV [S18 library phage peptide of SEQ ID NO: 30] as the binder, how does the ELISA read?
Answer: 19800 units

Question: Which ELISA does the source give for AKCIAFGNSVYCLN [S18 library phage peptide of SEQ ID NO: 24] here?
Answer: 31500 units

Question: For TDCVRFGETIYCIV [S18 library phage peptide of SEQ ID NO: 33], which ELISA is on record?
Answer: 13300 units

Question: How did the ELISA turn out when TDCVIFGLETYCLR [P173] was run?
Answer: 37900 units

Question: Which ELISA does the source give for KHCILFEKTVYCAK [S18 library phage peptide of SEQ ID NO: 26] here?
Answer: 9110 units

Question: How did the ELISA turn out when AGCIAFVDVVYCAR [S18 library phage peptide of SEQ ID NO: 23] was run?
Answer: 6380 units

Question: TDCIRFGVLWYCLV [S18 library phage peptide of SEQ ID NO: 28] was tested. Which ELISA did it give?
Answer: 4750 units

Question: How did the ELISA turn out when RACITFGKVVYCEV [S18 library phage peptide of SEQ ID NO: 29] was run?
Answer: 30700 units

Target: sEGFR-MMB (human)
Test: as above
Remark: another data set of the same source

Question: For SGCLDALWQCVY [P174], which ELISA is on record?
Answer: 34600 units

Question: Which ELISA does the source give for RWCYFWWITICEL [P178] here?
Answer: 7910 units

Question: With DACTMVFLWCSL [P177] as the binder, how does the ELISA read?
Answer: 8660 units

Target: sEGFR-MMB (human)
Test: as above
Remark: another data set of the same source

Question: Which ELISA does the source give for GPCVLIRDYYLLCLE [P179] here?
Answer: 14000 units

Question: Which ELISA does the source give for YDCMIRADGSLICWC [S19 library phage peptide of SEQ ID NO: 38] here?
Answer: 1290 units

Question: With CDCREAVSASLVCRY [S19 library phage peptide of SEQ ID NO: 41] as the binder, how does the ELISA read?
Answer: 3350 units

Question: For AFCRLDFNQWLTCLV [S19 library phage peptide of SEQ ID NO: 40], which ELISA is on record?
Answer: 2580 units

Question: How did the ELISA turn out when MICYLVDSGNIICYK [P180] was run?
Answer: 8810 units
